Key:
Assay in all cases: cell-based or functional assay
human RXFP4 (human) = human RXFP4 (human) (UniProt Q8TDU9)
human RXFP3 (human) = human RXFP3 (human) (UniProt Q9NSD7)
human RXFP2 (human) = human RXFP2 (human) (UniProt Q8WXD0)
Chain of human RXFP2 (human) (Q8WXD0 whole entry): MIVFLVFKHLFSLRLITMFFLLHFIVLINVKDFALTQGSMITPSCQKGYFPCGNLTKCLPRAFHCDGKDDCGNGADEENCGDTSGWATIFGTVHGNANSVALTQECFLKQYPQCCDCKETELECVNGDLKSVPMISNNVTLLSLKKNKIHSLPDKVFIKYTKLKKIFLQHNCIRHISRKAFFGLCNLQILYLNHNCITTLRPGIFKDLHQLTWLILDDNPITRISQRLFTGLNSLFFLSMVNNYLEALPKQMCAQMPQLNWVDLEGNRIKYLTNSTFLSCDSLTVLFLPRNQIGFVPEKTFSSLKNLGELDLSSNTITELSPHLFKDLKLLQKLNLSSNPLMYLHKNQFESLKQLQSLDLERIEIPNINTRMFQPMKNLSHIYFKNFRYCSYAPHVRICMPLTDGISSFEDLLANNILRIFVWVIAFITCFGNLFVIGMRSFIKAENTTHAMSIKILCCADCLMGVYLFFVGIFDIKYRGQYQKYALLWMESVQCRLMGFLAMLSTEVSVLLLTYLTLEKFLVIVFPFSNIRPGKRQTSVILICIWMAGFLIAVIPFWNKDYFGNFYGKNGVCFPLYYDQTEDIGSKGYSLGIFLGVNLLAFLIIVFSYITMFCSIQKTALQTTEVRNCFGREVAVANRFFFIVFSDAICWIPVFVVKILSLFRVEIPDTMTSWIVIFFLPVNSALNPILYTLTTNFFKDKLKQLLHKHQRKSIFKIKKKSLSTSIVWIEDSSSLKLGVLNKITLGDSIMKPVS

Chain of human RXFP4 (human) (Q8TDU9 whole entry): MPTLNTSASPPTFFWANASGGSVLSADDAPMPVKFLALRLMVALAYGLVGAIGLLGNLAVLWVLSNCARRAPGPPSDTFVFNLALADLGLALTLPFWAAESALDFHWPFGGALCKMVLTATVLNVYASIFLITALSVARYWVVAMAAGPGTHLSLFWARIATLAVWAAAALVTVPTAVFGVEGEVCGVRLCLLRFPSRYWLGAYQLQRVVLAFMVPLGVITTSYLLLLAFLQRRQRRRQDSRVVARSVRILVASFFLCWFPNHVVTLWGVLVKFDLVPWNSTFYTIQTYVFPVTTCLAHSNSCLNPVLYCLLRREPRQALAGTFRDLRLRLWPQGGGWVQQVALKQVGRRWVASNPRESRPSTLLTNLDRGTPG
Chain of human RXFP3 (human) (Q9NSD7 whole entry): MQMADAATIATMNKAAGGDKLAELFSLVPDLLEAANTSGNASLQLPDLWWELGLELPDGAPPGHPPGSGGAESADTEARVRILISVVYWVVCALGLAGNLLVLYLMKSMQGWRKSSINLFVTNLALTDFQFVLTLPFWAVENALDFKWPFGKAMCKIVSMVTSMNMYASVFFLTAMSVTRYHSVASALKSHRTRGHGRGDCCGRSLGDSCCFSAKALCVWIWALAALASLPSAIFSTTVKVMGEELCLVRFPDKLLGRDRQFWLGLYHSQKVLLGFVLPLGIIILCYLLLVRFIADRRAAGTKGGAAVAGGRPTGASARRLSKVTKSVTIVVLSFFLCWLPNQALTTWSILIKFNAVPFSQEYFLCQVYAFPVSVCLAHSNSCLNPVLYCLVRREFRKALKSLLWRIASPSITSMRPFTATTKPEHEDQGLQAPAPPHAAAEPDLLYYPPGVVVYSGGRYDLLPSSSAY

cAMP Assay EC50 (nM), inhibition of forskolin-induced cAMP, human RXFP4/CHO-K1 cells (human RXFP4 (human))	maximal inhibition of forskolin-induced cAMP, human RXFP4/CHO-K1 cells (human RXFP4 (human))	cAMP Assay EC50 (nM), inhibition of forskolin-induced cAMP, human RXFP3/CHO-K1 cells (human RXFP3 (human))	cAMP Assay EC50 (nM), human RXFP2/CHO-K1 cells (human RXFP2 (human))	Substance
2.8 nM	40%	0.6 nM	–	recombinant human relaxin 3 (H3-RLX) (from UniProt Q8WXF3 26-142) (ligand)
–	–	–	0.46 nM	insulin like 3 protein (INSL3) (from UniProt P51460 21-131) (ligand)
